Results as given in doi:10.1101/2023.05.01.538930 (bioRxiv, 2023).

T1: GajA of the Gabija system from Bacillus cereus VD045 (Bacillus cereus VD045, UniProt J8H9C1 1-578)
T1 sequence (looked up): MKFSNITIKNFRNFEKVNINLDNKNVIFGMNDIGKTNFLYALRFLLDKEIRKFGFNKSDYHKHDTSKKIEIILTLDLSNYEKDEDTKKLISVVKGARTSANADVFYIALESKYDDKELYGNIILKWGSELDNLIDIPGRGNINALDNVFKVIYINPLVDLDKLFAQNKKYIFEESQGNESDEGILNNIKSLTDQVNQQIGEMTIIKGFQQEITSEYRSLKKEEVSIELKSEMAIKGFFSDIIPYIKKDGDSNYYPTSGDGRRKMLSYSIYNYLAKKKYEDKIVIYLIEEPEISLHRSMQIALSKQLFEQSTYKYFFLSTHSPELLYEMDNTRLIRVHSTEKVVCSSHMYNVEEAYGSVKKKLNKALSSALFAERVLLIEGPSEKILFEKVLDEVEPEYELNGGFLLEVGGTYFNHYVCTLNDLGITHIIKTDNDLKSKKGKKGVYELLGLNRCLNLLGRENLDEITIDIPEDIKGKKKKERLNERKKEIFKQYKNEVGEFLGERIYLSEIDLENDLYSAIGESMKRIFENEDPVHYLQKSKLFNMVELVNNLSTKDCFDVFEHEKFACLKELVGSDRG

B1: Tad2 from phage SPO1 (construct for crystallization) (natural protein, Bacillus phage SPO1)
chain: MKTKMSFGEALEVLKQGMQVYRSGWNGKNMFLFLKSSDALASDFGFGFGEYINEPVFGNIIFIKTADNKIHAWVPSQTDVLAEDWDIVS
B2: GajB of the Gabija system from Bacillus cereus VD045 (natural protein, UniProt J8HQ06 1-494, looked up)
chain: MSREQIIKDGGNILVTAGAGSGKTTILVSKIEADLKENKTHYSIAAVTFTNKAAKEIEGRLGYSSRGNFIGTNDGFVESEIIRPFIKDAFGNDYPDNFTAEYFDNQFASYDKGLQVLKYQNILGTYSNPKKNFKFQLALDILKKSLVARQYIFSKYFKIFIDEYQDSDKDMHNLFMYLKDQLKIKLFIVGDPKQSIYIWRGAEPENFNGLIENSTDFNKYHLTSNFRCCQDIQNYSNLFNEETRSLIKEKNEVQNVISIADDMPISDILLKLTEEKQVLNIEAELVILVRRRNQAIEIMKELNEEGFNFIFIPQTPLDRATPNATLLKEVIKYVKNDRYSIYDLAAEIVGNLSSREIKEIQKIINELLVPNINQVLINQVLINLFAKLEITLDTREITAFTEVMMTNEFDIAFDTNEYLHKIFTVHSAKGLEFNQVIITASDYNVHYNRDTNEHYVATTRAKDKLIVIMDNKKYSDYIETLMKELKIKNIIKSI

What was measured:
crystal structure = target: the molecule itself; test: crystal structure
[1] = target: T1, GajA of the Gabija system from Bacillus …; test: reconstitution of the complex from purified proteins

Binder | stoichiometry N (crystal structure) | binding result [1]
B1 | 4 | –
B2 | – | binds
